The results in this text go back to patent US20210301011A1, “COMPOSITION FOR PROPHYLAXIS OR TREATMENT OF IL-8 RELATED DISEASES” (CHUGAI SEIYAKU KABUSHIKI KAISHA, priority 2016, published 2021).

Entries after “also recorded” stand apart in the source; their conditions may differ.

The target of assay [1] is T1, cynomolgus monkey FcγRIIIa (Macaca fascicularis, UniProt Q8SPW2).
T1 construct: the soluble forms of FcγRIa and FcγRIIIa in human and cynomolgus monkey; His tag; made in house
Description: Binding to soluble FcγR (BIACORE T200). The conditions noted are these: 20° C., HBS-EP+. As to the method: (§1) Soluble FcγRIa and FcγRIIIa in both human and cynomolgus monkey were produced in the form of His-tagged molecules by methods known to those of ordinary skill in the art. […] Next, soluble FcγRIa or FcγRIIIa was injected with a running buffer (used as a reference solution), and was made to interact with the antibodies captured onto the sensor chip. HBS-EP+(GE Healthcare) was used as the running buffer, and HBS-EP+ was also used to dilute the soluble FcγRIa or FcγRIIIa. […] All measurements were carried out at 20° C.
In general terms: SPR reads the build-up and loss of mass on a sensor chip optically.

A further assay has as its system cynomolgus monkey FcγRIa. Description: Binding to soluble FcγR (BIACORE T200). The conditions noted are these: 20° C., HBS-EP+. As to the method: as §1
The next assay addresses T2, human FcγRIIIa (Homo sapiens, UniProt P08637).
T2 construct: the soluble forms of FcγRIa and FcγRIIIa in human and cynomolgus monkey; His tag; made in house
The assay is described as follows: Binding to soluble FcγR (BIACORE T200). The conditions noted are these: 20° C., HBS-EP+. As to the method: as §1

A further assay deals with T3, human FcγRIa (Homo sapiens, UniProt P12314).
T3 construct: the soluble forms of FcγRIa and FcγRIIIa in human and cynomolgus monkey; His tag; made in house
The assay is described as follows: Binding to soluble FcγR (BIACORE T200). Conditions: 20° C., HBS-EP+. As to the method:
as §1

The subject of another assay is adenomyosis lesions. Description: Adenomyosis lesions in surgically-induced endometriosis monkey models. Conditions: one case per group, compared to vehicle group. Type of assay: in vivo, cynomolgus monkeys. The text has this: After the final laparoscopic observation six months after the start of antibody administration in surgically-induced endometriosis monkey models, the uteri collected during autopsy were fixed with 10% neutral buffered formalin and HE-stained for observation. Endometrial tissues analogous to those of adenomyosis were strongly seen in the uterus in one case of the vehicle group as well as in one case of the antibody administration group. […] Thus, the monkeys were considered as being a human adenomyosis complication model, and the endometrial tissues in the myometria of these single cases were compared.

Assay [2] relates to post-surgical adhesion. Description: Adhesion after surgery (area surrounding the incision site in the abdominal wall) in endometriosis monkey models. Format: in vivo, cynomolgus monkeys. Conditions: 10 mg/kg; before vs six months after initiation of administration. As to the method: Specifically, adhesion to the area surrounding the incision site on the abdominal wall was compared before and after administration and evaluated by five evaluators on a three-point scale: (1) Improved, (2) Stable, and (3) Progressed. Ratings with a consensus among three or more of the five evaluators were adopted; otherwise (2) Stable was used. Evaluations were carried out on six monkeys in the vehicle group as well as seven monkeys in the antibody […]/[…]-[…] administration group. […] The monkey with “Progressed” was an individual in which the blood concentration of antibody […]/[…]-[…] had decreased due to anti-antibody production.

In assay [3] the test system is post-surgical adhesion. Description: Post-surgical adhesion-induced monkey model. Type of assay: in vivo, cynomolgus monkeys. More on the design: key: ∘: Adhesion found; x: No adhesion. Conditions: 10 mg/kg i.v. one hour or less after surgery; laparoscopy 24 to 35 days after; per animal. As to the method: To prepare a post-surgical adhesion-induced model, female cynomolgus monkeys 9 to 16 years of age (provided by the Tsukuba Primate Research Center at the National Institutes of Biomedical Innovation, Health and Nutrition) were treated under anesthesia as follows. Anesthesia was performed using balanced anesthesia of ketamine/xylazine (mixed at an adequate ratio of about 2:1) and isoflurane. An incision of 5 to 6 cm was made in the median line of the abdominal wall. After opening the abdomen, a 1-cm incision was made on the uterine corpus and sutured with 4 stitches using a single suture. Then, the whole uterus was brushed five times with gauze. Next, a 1-cm incision was made to the right abdominal wall peritoneal part at 2 cm from the incised median line of the abdominal wall and sutured by running suture with 4 stitches using an absorbable suture. After suture, the sutured part was brushed five times with gauze. Likewise, the peritoneum of left abdominal wall was incised, sutured, and brushed with gauze. Finally, the median line of abdominal wall was sutured by running suture with 10 to 11 stitches. The entire steps were completed in one hour or less. The antagonist Antisedan (in roughly the same amount as that of xylazine) and the antibiotic cephradine were administered at the time of awakening after surgery. Then, the pain reliever Zalban was administered for two days after surgery, and the monkeys were observed regularly every day to confirm the absence of post-surgical abnormalities. At laparoscopic observation, anesthesia and post-surgical monitoring were also performed in the same way.
The control group was untreated. 24 to 35 days after administration of the anti-IL-8 antibody, laparoscopy was performed to observe the adhesion formed due to incision, suture, and blushing with gauze. The abdomen was incised in the median line under anesthesia, and laparoscopic observation was performed by inserting a trocar and then introducing a laparoscope. The laparoscope was connected to a video system (KARL STORZ) and a monitor. The video system was used for recording, and the monitor was used for intraperitoneal observation. The size of the adhesion was measured using a graduated bar or graduated forceps. The presence, range, and location of adhesion were assessed during laparoscopic observation. […] Although adhesion was found in individual No. 206 in the anti-IL-8 antibody administration group, no adhesion was found in the right and left abdominal wall peritoneum or at the uterine incision site in individual No. 201. […] Those skilled in the art will naturally appreciate that anti-IL-8 antibodies may exert a stronger adhesion formation-preventive effect by appropriately altering the timing of administration or such. […]

T3 sequence (P12314 16-292 limits assumed): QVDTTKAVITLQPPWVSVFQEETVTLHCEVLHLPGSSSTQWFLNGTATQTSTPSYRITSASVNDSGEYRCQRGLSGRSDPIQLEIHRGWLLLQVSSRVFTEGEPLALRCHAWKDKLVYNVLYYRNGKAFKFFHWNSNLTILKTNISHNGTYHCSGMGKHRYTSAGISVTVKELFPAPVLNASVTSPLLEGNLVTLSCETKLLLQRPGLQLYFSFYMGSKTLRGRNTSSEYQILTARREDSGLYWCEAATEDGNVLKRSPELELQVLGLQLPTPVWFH
T1 sequence (Q8SPW2 17-208 limits assumed): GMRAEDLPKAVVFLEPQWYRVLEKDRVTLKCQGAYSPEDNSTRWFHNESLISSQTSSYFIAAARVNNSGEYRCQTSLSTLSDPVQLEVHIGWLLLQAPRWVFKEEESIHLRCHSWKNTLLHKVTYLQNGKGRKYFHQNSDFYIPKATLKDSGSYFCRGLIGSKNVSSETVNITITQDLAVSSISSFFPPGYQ
T2 sequence (P08637 17-208 limits assumed): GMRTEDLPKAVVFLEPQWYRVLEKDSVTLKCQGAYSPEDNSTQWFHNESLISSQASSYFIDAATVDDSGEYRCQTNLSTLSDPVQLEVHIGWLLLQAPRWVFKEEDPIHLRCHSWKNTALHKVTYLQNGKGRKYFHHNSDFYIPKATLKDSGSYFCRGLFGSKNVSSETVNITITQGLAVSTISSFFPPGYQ

B1: H1009/L395-F1974m: H1009-F1974m (SEQ ID NO:36) heavy chain, L395-kOMT light chain; the anti-IL-8 antibody of Table 29 (antibody)
heavy: QVQLVESGGGLVQPGGSLRLSCAASGFTFSDYYLSWVRQAPGKGLEWVGLIRNKDNYHTPEYSASVKGRFTISRDDSKNSLYLTMSDLKTEDTAVYYCARENHRYDVELAYWGQGTLVTVSSASTKGPSVFPLAPSSKSTSGGTAALGCLVKDYFPEPVTVSWNSGALTSGVHTFPAVLQSSGLYSLSSVVTVPSSSLGTQTYICNVNHKPSNTKVDKKVEPKSCDKTHTCPPCPAPELRRGPSVFLFPPKPKDTLMISRTPEVTCVVVDVSHEDPEVKFNWYVDGVEVHNAKTKPREEQYNSTYRVVSVLTVLHQDWLNGKEYKCKVSNKGLPSSIEKTISKAKGQPREPQVYTLPPSREEMTKNQVSLTCLVKGFYPSDIAVEWESNGQPENNYKTTPPVLDSDGSFFLYSKLTVDKSRWQQGNVFSCSVLHEALHAHTTRKELSLSP
light: DIQMTQSPSSLSASVGDRVTITCRASEIIYSYLAWYQQKPGKAPKLLIYKAKTHADGVPSRFSGSGSGTDFTFTISSLQPEDIATYYCKHHFGFPRTFGQGTKVEIKRTVAAPSVFIFPPSDEQLKSGTASVVCLLNNFYPREAKVQWKVDNALQSGNSQESVTEQDSKDSTYSLSSTLTLSKADYEKHKVYACEVTHQGLSSPVTKSFNRGEC
On to B1, for which, in assay [1], the “binding to soluble cynomolgus monkey FcγRIIIa” value was “not to bind to any of the FcγRs”. The “binding to soluble cynomolgus monkey FcγRIa” value in the assay with cynomolgus monkey FcγRIa is on record as “not to bind to any of the FcγRs”. In addition, the “binding to soluble human FcγRIIIa” value with human FcγRIIIa is reported as “not to bind to any of the FcγRs”. The “binding to soluble human FcγRIa” value with human FcγRIa is “not to bind to any of the FcγRs”. Further, the “histology of adenomyosis lesions (HE staining)” value in the assay with adenomyosis lesions is “atrophy of endometrial epithelia in the adenomyosis lesions as well as reduction and atrophy of stromal cells were observed; also recorded: Atrophy of endometrial epithelium, and atrophy and reduction of stromal cells were observed”. Moreover, in the assay with post-surgical adhesion [2], the “post-surgical adhesion: Improved (monkeys/total)” value was 6/7, the “post-surgical adhesion: Progressed (monkeys/total)” value is listed as 1/7 and the “post-surgical adhesion: Stable (monkeys/total)” value is reported as 0/7. Also, in the assay on post-surgical adhesion [3], the “adhesion at incision site: Abdominal wall, Median line” value is given as “∘”; the “adhesion at incision site: Abdominal wall, Peritoneum (L)” value is “∘ and x”; the “adhesion at incision site: Abdominal wall, Peritoneum (R)” value is “∘ and x”; the “adhesion at incision site: Uterus” value was “∘ and x”.
